The assay deals with human hCTLA4-RFP protein on 293 cells (human) (UniProt P16410). Put plainly: flow cytometry of cell conjugates; 293-hCTLA4-RFP cells with 100 nM antibody, then five times as many 293-B7-1-GFP cells (B7-1 is the ligand tested for blocking); lower right quadrant (RFP+GFP-) 6.13. In general terms: Flow cytometry measures light scatter and fluorescence of single cells or particles in a stream.
Chain of human hCTLA4-RFP protein on 293 cells (human) (P16410 36-223): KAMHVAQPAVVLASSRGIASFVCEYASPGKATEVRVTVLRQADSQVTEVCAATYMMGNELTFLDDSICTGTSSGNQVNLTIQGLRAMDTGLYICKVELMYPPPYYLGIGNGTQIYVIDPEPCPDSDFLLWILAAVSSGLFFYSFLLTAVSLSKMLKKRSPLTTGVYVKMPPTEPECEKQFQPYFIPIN

hIgG1 (antibody) showed a % RFP+GFP+ events (upper right quadrant) of 26.5%.

(Values after patent US20220251207A1.)
